The values below come from patent US20090162378A1.

Assay [1] addresses HCMV RC256 particles (human cytomegalovirus strain RC256) (human cytomegalovirus). Briefly: cell-based or functional assay.
Assay [2] has the same target. The assay can be described thus: phage ELISA; plate coated with HCMV RC256 against a control plate coated with lysate of E. coli transfected with pET-22b; detection with HRP anti-M13. (In general: An ELISA detects its analyte on a solid surface through an enzyme-linked reagent.)

B1: HCMV-20 scFv antibody, purified His-tag fused polypeptide expressed in E. coli (scFv)
scFv: MAQVQLQESGPGLVKPSGTLSLTCAVSGGSISSSNWWSWVRQPPGKGLEWIGEIYHSGSTNYNPSLKSRVTISVDKSKNQFSLKLSSVTAADTAVYYCAREGSYEAFDYWGQGTLVTVSSGGGGSGGGGSGGGGSNFMLTQPHSVSESPGKTVTISCTRSSGSIASNYVQWYQQRPGSAPSTVIYDDNQRPSGVPDRFSGSIDSSSNSASLTISGLKTEDEADYYCQSYDSSNHGVVFGGGTKLTVLGAA
In assay [1], B1 came in with a plaque number, Test 1, 1.0 uM HCMV-20 (virus only: 152) of 92 plaques; a plaque number, Test 1, 2.0 uM HCMV-20 (virus only: 152) of 36 plaques; a plaque number, Test 1, 4.1 uM HCMV-20 (virus only: 152) of 23 plaques; a plaque number, Test 1, 8.1 uM HCMV-20 (virus only: 152) of 20 plaques. In assay [1], this molecule gave a plaque number, Test 1, 16.3 uM HCMV-20 (virus only: 152) of 15 plaques; a plaque number, Test 2, 1.0 uM HCMV-20 (virus only: 139) of 93 plaques; a plaque number, Test 2, 2.0 uM HCMV-20 (virus only: 139) of 42 plaques; a plaque number, Test 2, 4.1 uM HCMV-20 (virus only: 139) of 17 plaques. Moreover, in assay [1], the plaque number, Test 2, 8.1 uM HCMV-20 (virus only: 139) came out at 16 plaques and the plaque number, Test 2, 16.3 uM HCMV-20 (virus only: 139) worked out at 16 plaques.

B2: HCMV-20 scFv antibody displayed on phage (positive phage clone from the mixed scFv phage display library) (scFv)
scFv: MAQVQLQESGPGLVKPSGTLSLTCAVSGGSISSSNWWSWVRQPPGKGLEWIGEIYHSGSTNYNPSLKSRVTISVDKSKNQFSLKLSSVTAADTAVYYCAREGSYEAFDYWGQGTLVTVSSGGGGSGGGGSGGGGSNFMLTQPHSVSESPGKTVTISCTRSSGSIASNYVQWYQQRPGSAPSTVIYDDNQRPSGVPDRFSGSIDSSSNSASLTISGLKTEDEADYYCQSYDSSNHGVVFGGGTKLTVLGAA
In the case of B2, the HCMV/control (ELISA signal ratio) in assay [2] was greater than 8.
